Source: patent US20070212347A1 (published 2007)
Blank lines part the entries; values can stand above or below the molecule they belong to.

What was measured:
[1] = molecular target: GST-p53 construct (Res. 73-390) [GST: P08515]; experiment: in vitro binding, ^35S-T-antigen probe on bead-immobilized GST-p53
[2] = molecular target: Ig^b and Ig^c, as partners of Ig^b in the 'Ig^b-Ig^b, Ig^b-Ig^c combinations'; experiment: in vitro binding, ^35S in vitro translated probe on bead-immobilized GST fusion, PhosphorImager
[3] = molecular target: T1, GST-Ig^b fusion protein (polycystin-1 Ig-like domains VI-X, amino acids 1205-1625, fused to GST) (human, UniProt P98161 1205-1625); experiment: in vitro binding, ^35S in vitro translated probe on bead-immobilized GST fusion
T1 construct: used soluble in the MDCK adhesion assays; not shown: glutathione S-transferase carrier encoded by the pGEX vector (Pharmacia), N-terminal fusion partner; linker residues not
T1 sequence: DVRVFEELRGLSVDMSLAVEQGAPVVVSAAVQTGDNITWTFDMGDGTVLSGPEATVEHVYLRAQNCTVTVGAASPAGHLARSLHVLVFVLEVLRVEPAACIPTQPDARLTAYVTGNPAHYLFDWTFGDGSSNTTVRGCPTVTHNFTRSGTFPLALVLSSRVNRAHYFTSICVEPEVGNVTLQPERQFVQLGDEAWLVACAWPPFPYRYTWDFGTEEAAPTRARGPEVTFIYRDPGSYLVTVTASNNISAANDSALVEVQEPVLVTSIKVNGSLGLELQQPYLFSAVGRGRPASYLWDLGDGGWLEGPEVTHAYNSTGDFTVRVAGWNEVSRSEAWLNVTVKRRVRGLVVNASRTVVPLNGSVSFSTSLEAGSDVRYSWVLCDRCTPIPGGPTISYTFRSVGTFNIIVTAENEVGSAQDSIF

[4] = molecular target: T2, ^35S-PKD2 probe (C-terminal region of polycystin-2, Res. 657-968) (UniProt Q13563 657-968, ^35S-labeled (in vitro translation)); experiment: in vitro binding, autoradiogram (FIG. 12C)
T2 construct: range 657-968; In vitro translated in the same manner as the Ig probes; also called polycystin-2 probe; PKD2 gene product
T2 sequence (looked up): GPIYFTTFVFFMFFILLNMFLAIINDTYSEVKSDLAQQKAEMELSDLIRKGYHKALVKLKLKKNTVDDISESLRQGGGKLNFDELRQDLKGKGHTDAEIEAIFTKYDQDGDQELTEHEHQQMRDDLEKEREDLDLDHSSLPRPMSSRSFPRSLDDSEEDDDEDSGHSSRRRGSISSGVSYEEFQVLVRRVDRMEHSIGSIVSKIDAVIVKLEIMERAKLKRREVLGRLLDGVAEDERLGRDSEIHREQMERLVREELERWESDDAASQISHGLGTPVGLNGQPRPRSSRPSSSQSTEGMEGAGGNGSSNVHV

GST-p53 construct (Res. 73-390) [GST: P08515], sequence (P08515 whole entry, the tested form may be a part): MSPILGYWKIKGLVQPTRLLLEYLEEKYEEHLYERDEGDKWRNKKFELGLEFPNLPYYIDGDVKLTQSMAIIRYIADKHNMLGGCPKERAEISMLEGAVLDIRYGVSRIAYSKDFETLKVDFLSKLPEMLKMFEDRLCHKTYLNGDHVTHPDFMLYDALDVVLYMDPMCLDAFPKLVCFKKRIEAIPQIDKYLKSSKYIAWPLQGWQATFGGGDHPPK

Molecule: ^35S-T-antigen probe (SV40 large T-antigen, res. 87-708) (from UniProt P03070 87-708)
- bound fraction (percentage of input probe) [1]: 45%

- bound fraction (percentage of input probe) [2]: 25 to 45%
- binding result [3]: binds
B1: ^35S-Ig^b in vitro translated probe (polycystin-1 Ig-like domains VI-X) (other)
chain: T1 sequence
modifications: ^35S-labeled (in vitro translation)
notes: Translated in reticulocyte lysate without the GST portion, from an AUG in a Kozak context placed upstream of the insert

- binding result [4]: binds
B2: MBP-PKD1 fusion protein (C-terminal region of polycystin-1, Res. 4077-4302, fused to MBP) (other, not shown: large carriers)
chain: ESWHLSPLLCVGLWALRLWGALRLGAVILRWRYHALRGELYRPAWEPQDYEMVELFLRRLRLWMGLSKVKEFRHKVRFEGMEPLPSRSSRGSKVSPDVPPPSAGSDASHPSTSSSQLDGLSVSLGRLGTRCEPEPSRLQAVFEALLTQFDRLNQATEDVYQLEQQLHSLQGRRSSRAPAGSSRGPSPGLRPALPSRLARASRGVDLATGPSRTPLRAKNKVHPSST
notes: Immobilized on amylose resin; also called polycystin-1 c-terminal fusion protein
